Test results as given in patent US7662384B2, “Use of anti-α5β1 antibodies to inhibit cancer cell proliferation” (Facet Biotech Corporation, priority 2004, dated 2010).

Experiment: predicted human serum levels of M200 from monkey PK data
Design: species or system humans
Procedure: At the highest dose in humans (15.0 mg/kg), the mean peak after 5 doses was predicted to be 592 μg/mL with the range of variability in humans predicted as 320 to 829 μg/mL. Table 3, was compiled using PK data from the monkey studies to predict the peak and tough serum concentrations (Cmax and Cmin, respectively) for each dose at each dose level in humans.

B1: M200: chimeric IgG4 anti-α5β1 antibody derived from IIA1; generic name volociximab (antibody, V domains shown)
VH: MAVLGLLLCLVTFPSCVLSQVQLKESGPGLVAPSQSLSITCTISGFSLTDYGVHWVRQPPGKGLEWLVVIWSDGSSTYNSALKSRMTIRKDNSKSQVFLIMNSLQTDDSAMYYCARHGTYYGMTTTGDALDYWGQGTSVTVSS
VL: MDFQVQIFSFLLISASVIMSRGQIVLTQSPAIMSASLGERVTMTCTASSSVSSNYLHWYQQKPGSAPNLWIYSTSNLASGVPARFSGSGSGTSYSLTISSMEAEDAATYYCHQYLRSPPTFGGGTKLEIKDMSVDMSV
modifications: chimeric antibody
notes: chimeric IgG4 anti-α5β1 antibody derived from IIA1; generic name volociximab
Estimated peak serum level (Cmax) in humans (0.5 mg/kg, dose number 1): 11 µg/mL | Estimated trough serum level (Cmin) in humans (0.5 mg/kg, dose number 1): 1.5 µg/mL | Estimated peak serum level (Cmax) in humans (0.5 mg/kg, dose number 2): 11 µg/mL | Estimated trough serum level (Cmin) in humans (0.5 mg/kg, dose number 2): 1.6 µg/mL | Estimated peak serum level (Cmax) in humans (0.5 mg/kg, dose number 3): 12 µg/mL | Estimated trough serum level (Cmin) in humans (0.5 mg/kg, dose number 3): 2 µg/mL | Estimated peak serum level (Cmax) in humans (0.5 mg/kg, dose number 4): 13 µg/mL | Estimated trough serum level (Cmin) in humans (0.5 mg/kg, dose number 4): 2.1 µg/mL | Estimated peak serum level (Cmax) in humans (0.5 mg/kg, dose number 5): 13 µg/mL | Estimated trough serum level (Cmin) in humans (0.5 mg/kg, dose number 5): 2.2 µg/mL | Estimated peak serum level (Cmax) in humans (1.0 mg/kg, dose number 1): 22 µg/mL | Estimated trough serum level (Cmin) in humans (1.0 mg/kg, dose number 1): 3 µg/mL | Estimated peak serum level (Cmax) in humans (1.0 mg/kg, dose number 2): 22 µg/mL | Estimated trough serum level (Cmin) in humans (1.0 mg/kg, dose number 2): 3 µg/mL | Estimated peak serum level (Cmax) in humans (1.0 mg/kg, dose number 3): 25 µg/mL | Estimated trough serum level (Cmin) in humans (1.0 mg/kg, dose number 3): 4 µg/mL | Estimated peak serum level (Cmax) in humans (1.0 mg/kg, dose number 4): 26 µg/mL | Estimated trough serum level (Cmin) in humans (1.0 mg/kg, dose number 4): 5 µg/mL | Estimated peak serum level (Cmax) in humans (1.0 mg/kg, dose number 5): 26 µg/mL | Estimated trough serum level (Cmin) in humans (1.0 mg/kg, dose number 5): 5 µg/mL | Estimated peak serum level (Cmax) in humans (2.5 mg/kg, dose number 1): 54 µg/mL | Estimated trough serum level (Cmin) in humans (2.5 mg/kg, dose number 1): 9 µg/mL | Estimated peak serum level (Cmax) in humans (2.5 mg/kg, dose number 2): 57 µg/mL | Estimated trough serum level (Cmin) in humans (2.5 mg/kg, dose number 2): 10 µg/mL | Estimated peak serum level (Cmax) in humans (2.5 mg/kg, dose number 3): 64 µg/mL | Estimated trough serum level (Cmin) in humans (2.5 mg/kg, dose number 3): 13 µg/mL | Estimated peak serum level (Cmax) in humans (2.5 mg/kg, dose number 4): 67 µg/mL | Estimated trough serum level (Cmin) in humans (2.5 mg/kg, dose number 4): 14 µg/mL | Estimated peak serum level (Cmax) in humans (2.5 mg/kg, dose number 5): 68 µg/mL | Estimated trough serum level (Cmin) in humans (2.5 mg/kg, dose number 5): 15 µg/mL | Estimated peak serum level (Cmax) in humans (5.0 mg/kg, dose number 1): 108 µg/mL | Estimated trough serum level (Cmin) in humans (5.0 mg/kg, dose number 1): 20 µg/mL | Estimated peak serum level (Cmax) in humans (5.0 mg/kg, dose number 2): 114 µg/mL | Estimated trough serum level (Cmin) in humans (5.0 mg/kg, dose number 2): 24 µg/mL | Estimated peak serum level (Cmax) in humans (5.0 mg/kg, dose number 3): 132 µg/mL | Estimated trough serum level (Cmin) in humans (5.0 mg/kg, dose number 3): 33 µg/mL | Estimated peak serum level (Cmax) in humans (5.0 mg/kg, dose number 4): 141 µg/mL | Estimated trough serum level (Cmin) in humans (5.0 mg/kg, dose number 4): 39 µg/mL | Estimated peak serum level (Cmax) in humans (5.0 mg/kg, dose number 5): 147 µg/mL | Estimated trough serum level (Cmin) in humans (5.0 mg/kg, dose number 5): 43 µg/mL | Estimated peak serum level (Cmax) in humans (10.0 mg/kg, dose number 1): 216 µg/mL | Estimated trough serum level (Cmin) in humans (10.0 mg/kg, dose number 1): 51 µg/mL | Estimated peak serum level (Cmax) in humans (10.0 mg/kg, dose number 2): 236 µg/mL | Estimated trough serum level (Cmin) in humans (10.0 mg/kg, dose number 2): 66 µg/mL | Estimated peak serum level (Cmax) in humans (10.0 mg/kg, dose number 3): 282 µg/mL | Estimated trough serum level (Cmin) in humans (10.0 mg/kg, dose number 3): 101 µg/mL | Estimated peak serum level (Cmax) in humans (10.0 mg/kg, dose number 4): 317 µg/mL | Estimated trough serum level (Cmin) in humans (10.0 mg/kg, dose number 4): 131 µg/mL | Estimated peak serum level (Cmax) in humans (10.0 mg/kg, dose number 5): 346 µg/mL | Estimated trough serum level (Cmin) in humans (10.0 mg/kg, dose number 5): 156 µg/mL | predicted terminal half-life in humans (15.0 mg/kg): about 13 days | Estimated Cmax range (54-140%) in humans (15.0 mg/kg, dose number 1): 175 to 453 µg/mL | Estimated peak serum level (Cmax) in humans (15.0 mg/kg, dose number 1): 324 µg/mL | Estimated trough serum level (Cmin) in humans (15.0 mg/kg, dose number 1): 91 µg/mL | Estimated Cmax range (54-140%) in humans (15.0 mg/kg, dose number 2): 197 to 512 µg/mL | Estimated peak serum level (Cmax) in humans (15.0 mg/kg, dose number 2): 366 µg/mL | Estimated trough serum level (Cmin) in humans (15.0 mg/kg, dose number 2): 126 µg/mL | Estimated Cmax range (54-140%) in humans (15.0 mg/kg, dose number 3): 243 to 629 µg/mL | Estimated peak serum level (Cmax) in humans (15.0 mg/kg, dose number 3): 450 µg/mL | Estimated trough serum level (Cmin) in humans (15.0 mg/kg, dose number 3): 200 µg/mL | Estimated Cmax range (54-140%) in humans (15.0 mg/kg, dose number 4): 283 to 733 µg/mL | Estimated peak serum level (Cmax) in humans (15.0 mg/kg, dose number 4): 524 µg/mL | Estimated trough serum level (Cmin) in humans (15.0 mg/kg, dose number 4): 268 µg/mL | Estimated peak serum level (Cmax) in humans (15.0 mg/kg, dose number 5): 592 µg/mL | Estimated trough serum level (Cmin) in humans (15.0 mg/kg, dose number 5): 332 µg/mL | predicted time to steady state concentration (all doses <10.0 mg/kg): ≤ 4 weeks | predicted time to steady state concentration (doses ≧10.0 mg/kg): ≤ 5 weeks
